Experimental data from US20160347844A1 (Dana-Farber, published 2016).

T1: recombinant mRGMb-HIS (R&D) (mouse, UniProt Q7TQ33 49-415, limits assumed)
T1 construct: Bought (R&D); also called monomeric mRGMb-HIS; not shown: HIS tag
T1 sequence: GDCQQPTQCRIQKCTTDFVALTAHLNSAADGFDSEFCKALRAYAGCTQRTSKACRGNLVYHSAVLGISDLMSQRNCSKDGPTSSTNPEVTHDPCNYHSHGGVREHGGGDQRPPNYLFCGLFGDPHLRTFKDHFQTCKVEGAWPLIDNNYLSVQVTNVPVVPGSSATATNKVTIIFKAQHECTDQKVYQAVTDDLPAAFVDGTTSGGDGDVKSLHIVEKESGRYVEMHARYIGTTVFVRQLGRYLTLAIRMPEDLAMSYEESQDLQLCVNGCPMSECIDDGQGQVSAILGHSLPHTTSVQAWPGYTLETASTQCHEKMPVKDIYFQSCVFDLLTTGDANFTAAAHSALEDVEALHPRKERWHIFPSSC

T2: mouse RGMb on mRGMb transfected 300 cells (mouse, UniProt Q7TQ33 49-415)
T2 construct: also called 300-mRGMb cells; DRAGON
T2 sequence: T1 sequence

B1: recombinant mouse BMP-4 (R&D) (ligand)
chain: SPKHHPQRSRKKNKNCRRHSLYVDFSDVGWNDWIVAPPGYQAFYCHGDCPFPLADHLNSTNHAIVQTLVNSVNSSIPKACCVPTELSAISMLYLDEYDKVVLKNYQEMVVEGCGCR
notes: Bought; also called mBMP-4
B2: recombinant mouse BMP-2 (GIBCO) (ligand)
chain: QAKHKQRKRLKSSCKRHPLYVDFSDVGWNDWIVAPPGYHAFYCHGECPFPLADHLNSTNHAIVQTLVNSVNSKIPKACCVPTELSAISMLYLDENEKVVLKNYQDMVVEGCGCR
notes: Bought; also called mBMP-2
B3: mPD-L2-hIgG (R&D) (Fc fusion, mouse, UniProt Q9WUL5 20-219, looked up)
chain: LFTVTAPKEVYTVDVGSSVSLECDFDRRECTELEGIRASLQKVENDTSLQSERATLLEEQLPLGKALFHIPSVQVRDSGQYRCLVICGAAWDYKYLTVKVKASYMRIDTRILEVPGTGEVQLTCQARGYPLAEVSWQNVSVPANTSHIRTPEGLYQVTSVLRLKPQPSRNFSCMFWNAHMKELTSAIIDPLSRMEPKVPR
notes: The text of the result says only 'PD-L2-Ig'; also called PD-L2-Ig; mPD-L2-Ig; not shown: human IgG part of the bought fusion protein
B4: mouse PD-L2 on mPD-L2 transfected 300 cells (ligand, UniProt Q9WUL5 20-247, looked up)
chain: LFTVTAPKEVYTVDVGSSVSLECDFDRRECTELEGIRASLQKVENDTSLQSERATLLEEQLPLGKALFHIPSVQVRDSGQYRCLVICGAAWDYKYLTVKVKASYMRIDTRILEVPGTGEVQLTCQARGYPLAEVSWQNVSVPANTSHIRTPEGLYQVTSVLRLKPQPSRNFSCMFWNAHMKELTSAIIDPLSRMEPKVPRTWPLHVFIPACTIALIFLAIVIIQRKRI
notes: whole, on cells; also called 300-mPD-L2

Experiments:
mPD-L2-hIgG (R&D) [1] = target: B3; assay: ELISA, PD-L2-Ig added to BMP-4-coated plate without RGMb, anti-hIgG-HRP (FIG. 1E)
Excerpt: (§1) FIG. 1 includes nine panels, identified as panels (A), (B), (C), (D), (E), (F), (G), (H), and (I), which show the blocking capacities of RGMb and PD-L2 mAbs and a model for RGMb, PD-L2, Neogenein, BMP, and BMP-receptor interactions. Panels A-C show the capacities of RGMb mAbs and PD-L2 mAbs to block RGMb binding to PD-L2 or to block PD-1 to PD-L2, as determined by cell conjugation assay. […] Binding of mRGMb-HIS was detected by anti-penta-HIS-HRP. […] Binding of Ig fusion proteins was detected with anti-hIgG-HRP. Similar results were also seen for BMP-2. […] Data shown in Panels 1A-1C and 1F-1H are representative of 2 or more independent experiments.
(§2) To determine if RGMb binds PD-L2 and BMP-2/4 simultaneously, 96-well ELISA plates were coated with BMP-2/4 as above. mPD-L2-hIgG1/IgA, mPD-L2-hIgG (R&D), mPD-L1-hIgG (R&D) or control-Ig fusion proteins at 10 µg/ml were preincubated with 10 μg/ml mRGMb-HIS (R&D) or buffer alone for 15 min. at room temperature (RT), then added to the plates and incubated for 1h at 37° C. Alternatively, 10 μg/ml mRGMb-HIS (R&D) or buffer alone was added first to the plates and incubated for 1h at 37° C. After wash, mPD-L2-Ig or control-Ig fusion proteins were added and incubated for 1 h at 37° C. Fab₂ goat anti-hIgG-HRP (Jackson ImmunoResearch Laboratories) at 1:10000 was used for detection.

[2] = target: T1, recombinant mRGMb-HIS (R&D); assay: ELISA, BMP-4-coated plate, mRGMb-HIS plus PD-L2-Ig, anti-hIgG-HRP
Excerpt: as §1, §2

mPD-L2-hIgG (R&D) [3] = target: B3; assay: ELISA, PD-L2-Ig added to BMP-2-coated plate without RGMb, anti-hIgG-HRP
Experimental: as §2

[4] = target: T1, recombinant mRGMb-HIS (R&D); assay: ELISA, BMP-2-coated plate, mRGMb-HIS plus PD-L2-Ig, anti-hIgG-HRP
Experimental: as §2

[5] = target: T1, recombinant mRGMb-HIS (R&D); assay: ELISA, PD-L2-Ig captured through mRGMb-HIS on BMP-2/4-coated plate, anti-hIgG-HRP
Experimental: as §2

[6] = target: T2, mouse RGMb on mRGMb transfected 300 …; assay: cell conjugation assay / flow cytometry / ELISA of FIG. 1

Binder: B1
- binding result (mPD-L2-hIgG (R&D) [1]): no binding
- binding result [2]: binds

Binder: B2
- binding result (mPD-L2-hIgG (R&D) [3]): no binding
- binding result [4]: binds

Binder: B3
- binding result [5]: binds

Binder: B4
- binding result [6]: binds
